As usually defined, the Kd is the equilibrium constant for the complex coming apart. Read a low Kd as a tighter complex.

Ends that are not written are not given here.

This passage reports Kd results from article PMC8246641.

The target of this assay is taxol-stabilized microtubules (MTs) (UniProt P02550). As to the kind of experiment: co-sedimentation.

B1: GST-ABS6^329–387 (DUF4005 domain of ABS6/AtIQD16, N-terminal GST tag) (domain or fragment)
chain: {GST}-RSASPRIPCSPSSMQPNYMSATESAKAKARTQSTPRRRPMTAKKRLCYAEEESLRSPSF
modifications: cysteine pairing not given here
Molecule B1 yielded a Kd of 996 nM.
